# Results from PMC12176259, “Bacterial transcriptional repressor NrdR – a flexible multifactorial nucleotide sensor” (The Febs Journal, 2024).
# “And” between values parts separate entries of the source, which are not always exact repeats. Equal entries are not always repeated.
# B1: Escherichia coli NrdR (natural protein, E. coli K‐12 strain MG1655)
# chain: MHCPFCFAVDTKVIDSRLVGEGSSVRRRRQCLVCNERFTTFEVAELVMPRVVKSNDVREPFNEEKLRSGMLRALEKRPVSSDDVEMAINHIKSQLRATGEREVPSKMIGNLVMEQLKKLDKVAYIRFASVYRSFEDIKEFGEEIARLED
# notes: Transcriptional repressor NrdR of E. coli K‐12 strain MG1655, wild type (NP_414947.1); The oligomeric state depends on the loaded nucleotides (apo: dimer); ATP‐dATP, ADP‐dATP, ADP, AMP‐dAMP: tetramer; also called EcoNrdR; E. coli NrdR; source: E. coli BL21(DE3), purified (HisTrap FF Ni‐Sepharose, desalting)
# B2: Selenomethionine‐derivatized Escherichia coli NrdR (natural protein, E. coli K‐12 strain MG1655)
# chain: B1 chain
# modifications: selenomethionine in place of methionine
# notes: Transcriptional repressor NrdR of E. coli K‐12 strain MG1655, wild type (NP_414947.1), from the same plasmid pET30a(+)::nrdR as m1; Same construct as m1, made in a methionine auxotroph with seleno‐L‐methionine; also called SeMet‐EcoNrdR; Se‐Met substituted EcoNrdR; source: E. coli B834 (DE3) in SelenoMet Minimal Media, purified
# What was measured:
# [1] = target: the molecule itself; test: SEC; ATP‐dATP‐loaded NrdR at high protein concentrations (440–550 μM)
# [2] = target: the molecule itself; test: SEC; Superdex 200 PC 3.2/30, 4–8 °C, Tris–HCl pH 9.0, 300 mM NaCl; NrdR pre‐incubated with AMP and dAMP
# [3] = target: the molecule itself; test: SEC; Superdex 200 PC 3.2/30, 4–8 °C, Tris–HCl pH 9.0, 300 mM NaCl; ATP‐loaded NrdR (0.1 mM ATP), low MgCl2 (0.1–0.2 mM); 17–55 μM NrdR
# [4] = target: the molecule itself; test: SEC; Superdex 200 PC 3.2/30, 4–8 °C, Tris–HCl pH 9.0, 300 mM NaCl; NrdR pre‐incubated with ADP and dATP, nucleotides in the SEC buffer; 10–90 μM NrdR
# [5] = target: the molecule itself; test: SEC; Superdex 200 PC 3.2/30, 4–8 °C, Tris–HCl pH 9.0, 300 mM NaCl; ATP‐loaded NrdR, excess MgCl2 (1 mM or higher); elutes in the void volume
# [6] = target: the molecule itself; test: SEC; Superdex 200 PC 3.2/30, 4–8 °C, Tris–HCl pH 9.0, 300 mM NaCl; NrdR pre‐incubated with ATP and dATP, nucleotides in the SEC buffer; 7–55 μM NrdR
# [7] = target: the molecule itself; test: SEC; Superdex 200 PC 3.2/30, 4–8 °C, Tris–HCl pH 9.0, 300 mM NaCl; NrdR with 0.2 mM ADP and 0.2 mM MgCl2
# [8] = target: the molecule itself; test: SEC; Superdex 200 PC 3.2/30, 4–8 °C, 25 or 50 mM Tris–HCl pH 9.0, 300 mM NaCl; 55 μM apo‐NrdR, no nucleotide effectors
# [9] = target: the molecule itself; test: crystal structure; SeMet‐EcoNrdR with ATP and dATP, 10 mg/mL; 0.1 M HEPES pH 7.5, 0.2 M MgCl2, 12.5% PEG 3350, 20 °C; one tetramer in the asymmetric unit
Protein,stoichiometry N [1],stoichiometry N [2],stoichiometry N [3],stoichiometry N [4],stoichiometry N [5],stoichiometry N [6],stoichiometry N [7],stoichiometry N [8],binding result [9]
B1,8 subunits and 16 subunits,4.8 subunits,12.1 subunits,4.8 subunits,> 33 subunits,4.5 subunits,4.5 subunits,2.1 subunits,
B2,,,,,,,,,binds
